Source: patent publication US20090098112A1 (Genentech, published 2009)
Substitutions are numbered along the chain they refer to. Names and notes keep the numbering of the source.

Assays:
[1] = molecular target: T1, recombinant human integrin α5β1 (R&D) (human, UniProt P08648 42-995; P05556 21-728); assay: phage competition ELISA IC50 of the Fab-phage against human integrin α5β1, relative to parental h7H5.v1; down arrow = loss, up arrow = improvement of binding affinity
T1 construct: Bought recombinant heterodimer (R&D); It was used coated on plates and in solution in the phage ELISA, and as analyte or immobilized in BIAcore; also called alpha5beta1; a5b1
Description: Substitutions with other resides at various positions was achieved by Kunkel mutagenesis using a separate oligonucleotide for each position. […] The IC50 values for binding affinity were determined by phage competition ELISA in FIG. 6. Two variants, h7H5.v2 and h7H5.v3 as indicated were selected to include glycine substitution at position 65 of CDR-H2, cloned into hIgG1 vector, and evaluated binding affinities using BIAcore instrument.
(§1) MAXISORP™ microtiter plates were coated with recombinant human integrin α5β1 (R&D) at 5 μg/ml in PBS overnight and then blocked with PBST buffer (0.5% BSA and 0.05% Tween 20 in PBS) for an hour at room temperature. Phage from culture supernatants were incubated with serially diluted human integrin α5β1 in PBST buffer in a tissue-culture microtiter plate for an hour, after which 80 μl of the mixture was transferred to the target-coated wells for 15 minutes to capture unbound phage. The plate was washed with PBT buffer (0.05% Tween 20 in PBS), and HRP-conjugated anti-M13 (Amersham Pharmacia Biotech) was added (1:5000 in PBST buffer) for 40 minutes. The plate was washed with PBT buffer and developed by adding tetramethylbenzidine substrate (Kirkegaard and Perry Laboratories, Gaithersburg, Md.). The absorbance at 450 nm was plotted as a function of target concentration in solution to determine phage IC₅₀.

[2] = molecular target: T1, recombinant human integrin α5β1 (R&D); assay: phage competition ELISA: Fab-phage incubated with serially diluted soluble human integrin α5β1, unbound phage captured on plate-coated integrin α5β1, anti-M13-HRP, A450
Description: Mutation at each position was generated by Kunkel mutagenesis using a separate oligonucleotide. Phage competition ELISA was utilized for evaluating all of the variants. […] Binding affinities (IC50) against human integrin α5β1 was determined.
as §1

[3] = molecular target: T1, recombinant human integrin α5β1 (R&D); assay: SPR (BIACORE-3000), antibody immobilized on CM5 chip (about 450 RU), human integrin α5β1 injected 300 nM to 0.29 nM, 25 °C, 1:1 Langmuir fit
Description: FIG. 7 depicts the results of a BIACORE® analysis of humanized 7H5.v1, v2 and v3-IgG against human integrin α5β1. […] Humanized 7H5.v2 indicates the most binding affinity improvement in off-rate.
(§2) Affinity determinations were performed by surface-plasmon resonance using a BIACORE™-3000 instrument. Immobilization was achieved by random coupling through amino groups using a protocol provided by the manufacturer. Two different formats were operated to study binding kinetics for antibody against human integrin α5β1. In FIGS. 3A, 7, and 9A, antibodies were immobilized on a CM5 sensor chip around 450 response units (RU), and 2-fold serial diluted concentrations of human integrin α5β1 (300 nM to 0.29 nM) in PBT buffer (0.05% Tween 20 in PBS) were injected with a flow rate of 30 μl/min at 25° C. In FIGS. 3B and 9B, human integrin […] was immobilized on a CM5 sensor chip around 800 RU, and 2-fold serial diluted concentrations of antibodies (200 nM to 0.2 nM) in PBT buffer (0.05% Tween 20 in PBS) were injected with a flow rate of 30 μl/min at 25° C. After each injection, the chip was regenerated using 10 mM Glycine-HCl buffer at pH 1.7. Binding response was corrected by subtracting the RU from a blank flow cell. Association rates (kₒₙ) and dissociation rates (koff) were calculated using a simple one-to-one Langmuir binding model (BIAcore Evaluation Software version 3.2). The equilibrium dissociation constant (Kd) was calculated as the ratio koff/kₒₙ.

[4] = molecular target: T1, recombinant human integrin α5β1 (R&D); assay: SPR (BIACORE-3000), human integrin α5β1 immobilized on CM5 chip (about 800 RU), antibody injected 200 nM to 0.2 nM, 25 °C, 1:1 Langmuir fit
Description: (§3) FIG. 9 depicts the results of a BIACORE® analysis of humanized 7H5.v2, v4 and v5-IgG against human integrin α5β1.
as §2

[5] = molecular target: T1, recombinant human integrin α5β1 (R&D); assay: SPR (BIACORE-3000), antibody immobilized on CM5 chip (about 450 RU), human integrin α5β1 injected 300 nM to 0.29 nM, 25 °C, 1:1 Langmuir fit; remark: listed apart in the source
Description: as §3, §2

T1 sequence (P08648 42-995 limits assumed, chain 1 of 2): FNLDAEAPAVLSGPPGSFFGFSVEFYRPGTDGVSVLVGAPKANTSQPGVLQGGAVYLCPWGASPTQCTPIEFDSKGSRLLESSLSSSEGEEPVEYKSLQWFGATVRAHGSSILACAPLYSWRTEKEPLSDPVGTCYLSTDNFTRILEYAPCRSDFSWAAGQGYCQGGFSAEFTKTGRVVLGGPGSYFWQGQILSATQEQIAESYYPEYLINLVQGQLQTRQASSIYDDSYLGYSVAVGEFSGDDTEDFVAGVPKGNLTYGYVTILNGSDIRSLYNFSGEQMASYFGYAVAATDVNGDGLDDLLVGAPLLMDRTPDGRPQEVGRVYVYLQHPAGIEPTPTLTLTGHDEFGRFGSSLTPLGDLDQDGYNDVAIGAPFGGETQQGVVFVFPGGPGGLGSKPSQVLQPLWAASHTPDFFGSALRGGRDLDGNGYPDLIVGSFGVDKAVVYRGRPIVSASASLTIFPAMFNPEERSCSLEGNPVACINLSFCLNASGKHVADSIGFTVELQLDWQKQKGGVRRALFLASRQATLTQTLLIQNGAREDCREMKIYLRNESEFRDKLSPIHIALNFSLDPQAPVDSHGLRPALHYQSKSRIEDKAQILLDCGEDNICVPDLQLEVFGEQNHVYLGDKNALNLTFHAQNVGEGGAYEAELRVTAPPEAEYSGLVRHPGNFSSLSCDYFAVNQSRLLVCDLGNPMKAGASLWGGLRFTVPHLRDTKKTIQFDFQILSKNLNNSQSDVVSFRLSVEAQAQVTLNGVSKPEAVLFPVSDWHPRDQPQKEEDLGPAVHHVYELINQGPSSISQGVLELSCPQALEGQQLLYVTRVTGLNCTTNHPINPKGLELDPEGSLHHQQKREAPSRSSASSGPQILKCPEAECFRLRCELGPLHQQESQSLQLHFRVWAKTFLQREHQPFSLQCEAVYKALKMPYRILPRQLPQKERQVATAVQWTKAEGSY
T1 sequence (P05556 21-728 limits assumed, chain 2 of 2): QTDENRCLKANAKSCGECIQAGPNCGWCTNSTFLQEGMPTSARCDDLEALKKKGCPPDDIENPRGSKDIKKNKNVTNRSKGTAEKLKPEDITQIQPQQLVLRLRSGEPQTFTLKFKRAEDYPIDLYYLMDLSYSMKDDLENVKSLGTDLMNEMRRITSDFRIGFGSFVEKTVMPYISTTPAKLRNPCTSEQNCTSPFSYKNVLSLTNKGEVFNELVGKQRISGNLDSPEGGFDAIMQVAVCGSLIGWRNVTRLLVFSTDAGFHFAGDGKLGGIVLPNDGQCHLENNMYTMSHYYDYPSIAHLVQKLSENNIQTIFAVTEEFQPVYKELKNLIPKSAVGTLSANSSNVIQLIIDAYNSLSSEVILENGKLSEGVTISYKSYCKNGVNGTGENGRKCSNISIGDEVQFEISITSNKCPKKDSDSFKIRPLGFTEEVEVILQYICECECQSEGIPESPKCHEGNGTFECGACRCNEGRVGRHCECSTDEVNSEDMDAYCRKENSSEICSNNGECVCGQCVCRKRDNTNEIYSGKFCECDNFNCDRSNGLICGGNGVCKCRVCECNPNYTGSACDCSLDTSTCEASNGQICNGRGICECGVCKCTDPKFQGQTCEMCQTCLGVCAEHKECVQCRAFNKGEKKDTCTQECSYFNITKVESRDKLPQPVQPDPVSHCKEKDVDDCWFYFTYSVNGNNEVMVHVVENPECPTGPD

B1: CDR-L1:N28A (Fab, part only; not given: VH end, constant domains, phage fusion, V domains shown, not shown: another chain or arm of the molecule; large carriers)
VL: DIQMTQSPSSLSASVGDRVTITCKASQAVGSDVAWYQQKPGKAPKTLIYSTSYRYSGVPSRFSGSGSGTDFTLTISSLQPEDFATYYCQQYNSYPFTFGQGTKVEIK
VH: EVQLVESGGGLVQPGGSLRLSCAASGYTFTDYYLYWVRQAPGKGLEWIGGISPSNGGTTFNDNFENKATLSVDKSKNTAYLQMNSLRAEDTAVYYCTRDAYGDWYFDVWGQGT
[1]
  Relative Fold to h7H5.v1: 2.1 fold
[2]
  IC50 (read off the curve): 0.2 nM

B2: h7H5.v2 displayed on phage as a monovalent Fab (Fab, V domains shown)
VH: B1 VH with N55S, N61A, N63A, N66G
VL: DIQMTQSPSSLSASVGDRVTITCKASQSVGSDVAWYQQKPGKAPKTLIYSTSYRYSGVPSRFSGSGSGTDFTLTISSLQPEDFATYYCQQYSSYPFTFGQGTKVEIKR
notes: also called humanized 7H5.v2; parental clone
[2]
  IC50 (read off the curve): ~0.06 nM

B3: HC:G49S (Fab, part only; not given: VH end, constant domains, phage fusion, V domains shown, not shown: another chain or arm of the molecule; large carriers)
VL: B1 VL with A28S, N92S
VH: B1 VH with G49S, N55S, N61A, N63A, N66G
[2]
  IC50 (read off the curve): 0.07 nM

B4: CDR-H2:N60S (Fab, part only; not given: VH end, constant domains, phage fusion, V domains shown, not shown: another chain or arm of the molecule; a dimerising Fc or GST; large carriers)
VL: B1 VL with A28N
VH: B1 VH with N61S
[1]
  Relative Fold to h7H5.v1: 2.5 fold

B5: CDR-H2:N54S (Fab, part only; not given: VH end, constant domains, phage fusion, V domains shown, not shown: another chain or arm of the molecule; a dimerising Fc or GST; large carriers)
VL: B1 VL with A28N
VH: B1 VH with N55S
[1]
  Relative Fold to h7H5.v1: 1 fold

B6: humanized 7H5.v2-IgG (antibody, V domains shown)
VH: B1 VH with N55S, N61A, N63A, N66G
VL: B2 VL
notes: also called h7H5.v2
[3]
  Kd: 0.77 nM
  koff: 6.2e-05 s⁻¹
  kon: 81000 M⁻¹ s⁻¹
[4]
  Kd: 0.11 nM
  koff: 0.00015 s⁻¹
  kon: 1.4e+06 M⁻¹ s⁻¹
[5]
  Kd: 0.77 nM
  koff: 6.4e-05 s⁻¹
  kon: 83000 M⁻¹ s⁻¹

B7: CDR-H2:N54A (Fab, part only; not given: VH end, constant domains, phage fusion, V domains shown, not shown: another chain or arm of the molecule; a dimerising Fc or GST; large carriers)
VL: B1 VL with A28N
VH: B1 VH with N55A
[1]
  Relative Fold to h7H5.v1: 2.4 fold
[2]
  IC50 (read off the curve): 0.2 nM

B8: N28S(L1)+N92S(L3)+N54S/N60A/N62A/N65S(H2) (Fab, part only; not given: VH end, constant domains, phage fusion, V domains shown, not shown: another chain or arm of the molecule; large carriers)
VL: B1 VL with A28S, N92S
VH: B1 VH with N55S, N61A, N63A, N66S
[2]
  IC50 (read off the curve): 0.04 nM

B9: CDR-H2:N62A (Fab, part only; not given: VH end, constant domains, phage fusion, V domains shown, not shown: another chain or arm of the molecule; a dimerising Fc or GST; large carriers)
VL: B1 VL with A28N
VH: B1 VH with N63A
[1]
  Relative Fold to h7H5.v1: 1 fold

B10: CDR-H2:N60A (Fab, part only; not given: VH end, constant domains, phage fusion, V domains shown, not shown: another chain or arm of the molecule; a dimerising Fc or GST; large carriers)
VL: B1 VL with A28N
VH: B1 VH with N61A
[1]
  Relative Fold to h7H5.v1: 1.6 fold

B11: CDR-H2:N62S (Fab, part only; not given: VH end, constant domains, phage fusion, V domains shown, not shown: another chain or arm of the molecule; a dimerising Fc or GST; large carriers)
VL: B1 VL with A28N
VH: B1 VH with N63S
[1]
  Relative Fold to h7H5.v1: 1.3 fold
[2]
  IC50 (read off the curve): 0.1 nM

B12: HC:A78L (Fab, part only; not given: VH end, constant domains, phage fusion, V domains shown, not shown: another chain or arm of the molecule; large carriers)
VL: B1 VL with A28S, N92S
VH: B1 VH with N55S, N61A, N63A, N66G, A79L
[2]
  IC50 (read off the curve): 0.09 nM

B13: h7H5.v1 (Fab, part only; not given: VH end, constant domains, phage fusion, V domains shown, not shown: another chain or arm of the molecule; large carriers)
VL: B1 VL with A28N
VH: B1 VH
[2]
  IC50 (read off the curve): 0.05 nM

B14: h7H5.v2 framework modification clone, heavy chain I48V, displayed on phage as a monovalent Fab (Fab, name in Kabat numbering, V domains shown)
VH: B1 VH with I48V, N55S, N61A, N63A, N66G
VL: B2 VL
notes: Single mutation in h7H5.v2 made by Kunkel mutagenesis; monovalent Fab on phage; also called heavy chain position 48 (I48V)
[2]
  binding result: binds

B15: h7H5.v2 framework modification clone, light chain T46L, displayed on phage as a monovalent Fab (Fab, name in Kabat numbering, V domains shown)
VH: B1 VH with N55S, N61A, N63A, N66G
VL: B2 VL with T46L
notes: Single mutation in h7H5.v2 made by Kunkel mutagenesis; monovalent Fab on phage; also called light chain position 46 (T46L)
[2]
  binding result: binds

B16: h7H5.v2 framework modification clone, heavy chain A67F, displayed on phage as a monovalent Fab (Fab, name in Kabat numbering, V domains shown)
VH: B1 VH with N55S, N61A, N63A, N66G, A68F
VL: B2 VL
notes: Single mutation in h7H5.v2 made by Kunkel mutagenesis; monovalent Fab on phage; The position is Kabat and may be shifted from the count on the entry; also called heavy chain position 67 (A67F)
[2]
  binding result: binds

B17: CDR-L1:N28S (Fab, V domains shown)
VH: B1 VH
VL: B1 VL with A28S
notes: Fab-phage; also called h7H5.v1 single point mutant, light chain N28S, Fab-phage; copies: 1 + 1
[1]
  Relative Fold to h7H5.v1: 1.3 fold

B18: humanized 7H5.v4-IgG (antibody, V domains shown)
VH: B1 VH with T30S, I48V, N55S, N61A, N63A, N66G, K67R, A68F, L70I
VL: B2 VL with T46L
notes: also called h7H5.v4
[4]
  Kd: 0.14 nM
  koff: 0.00013 s⁻¹
  kon: 930000 M⁻¹ s⁻¹
[5]
  Kd: 0.73 nM
  koff: 5.5e-05 s⁻¹
  kon: 75000 M⁻¹ s⁻¹

B19: CDR-L3:N92S (Fab, V domains shown)
VH: B1 VH
VL: B1 VL with A28N, N92S
notes: Fab-phage; also called h7H5.v1 single point mutant, light chain N92S, Fab-phage; copies: 1 + 1
[1]
  Relative Fold to h7H5.v1: 1 fold

B20: CDR-L3:N92A (Fab, V domains shown)
VH: B1 VH
VL: B1 VL with A28N, N92A
notes: Fab-phage; also called h7H5.v1 single point mutant, light chain N92A, Fab-phage
[1]
  Relative Fold to h7H5.v1: 1 fold

B21: h7H5.v2 framework modification clone, heavy chain T30S, displayed on phage as a monovalent Fab (Fab, name in Kabat numbering, V domains shown)
VH: B1 VH with T30S, N55S, N61A, N63A, N66G
VL: B2 VL
notes: Single mutation in h7H5.v2 made by Kunkel mutagenesis; monovalent Fab on phage; also called heavy chain position 30 (T30S)
[2]
  binding result: binds

B22: h7H5.v2 framework modification clone, heavy chain L69I, displayed on phage as a monovalent Fab (Fab, name in Kabat numbering, V domains shown)
VH: B1 VH with N55S, N61A, N63A, N66G, L70I
VL: B2 VL
notes: Single mutation in h7H5.v2 made by Kunkel mutagenesis; monovalent Fab on phage; The position is Kabat and may be shifted from the count on the entry; also called heavy chain position 69 (L69I)
[2]
  IC50 (read off the curve): ~0.05 nM

B23: h7H5.v5 (antibody, human IgG1, V domains shown)
VH: B1 VH with T30S, I48V, G49S, N55S, N61A, N63A, N66G, K67R, A68F, L70I
VL: B2 VL with T46L
notes: as human IgG1; also called humanized 7H5.v5-IgG
[4]
  Kd: 0.26 nM
  koff: 0.00017 s⁻¹
  kon: 660000 M⁻¹ s⁻¹
[5]
  Kd: 0.97 nM
  koff: 6.7e-05 s⁻¹
  kon: 69000 M⁻¹ s⁻¹

B24: h7H5.v2 framework modification clone, heavy chain K66R, displayed on phage as a monovalent Fab (Fab, name in Kabat numbering, V domains shown)
VH: B1 VH with N55S, N61A, N63A, N66G, K67R
VL: B2 VL
notes: Single mutation in h7H5.v2 made by Kunkel mutagenesis; monovalent Fab on phage; The position is Kabat and may be shifted from the count on the entry; also called heavy chain position 66 (K66R)
[2]
  binding result: binds

B25: h7H5.v3 (antibody, human IgG1, V domains shown)
VH: B1 VH with N55S, N61A, N63S, N66G
VL: B2 VL
notes: as human IgG1; also called humanized 7H5.v3-IgG
[3]
  Kd: 1.07 nM
  koff: 7.5e-05 s⁻¹
  kon: 70000 M⁻¹ s⁻¹
